Sequences and labels used below:
B1: Pistol ribozyme (parent)
chain: GGGUCGUUGUUCCAUAAUCGCGUGGAUAUGGCACGCAAGUUUCUACCGGGCACCGUAAAUGUCCGACUGGAGCCGUUCGGGCGGCUAUAAACAGACCUCAGGCCCGAAGCGUGGCGGCACCUGCCGCCGGUGGUAAAAAAGAUCGGAAGAGCACACGUCU

In the data set the parent is B1. The data set is described as follows: aptazyme ON/OFF ratio, guanine; higher = stronger switching; co-transcriptional cleavage with and without guanine.
As for U7C U8A G9C U10A C12A C13G, the “aptazyme ON/OFF ratio” value came to 1.14.
With U7C U8A G9A U10G C12G the figure was 1.25; with U7C U8A G9A U10G C12U, 1.29.
In the case of U7C U8A G9A U10G C12A, the “aptazyme ON/OFF ratio” value is 1.15.
With U7C U8A G9A U10G U11G C12G the figure was 1.29; with U7C U8A G9A U10G U11G C12U, 1.39.
Turning to U7C U8A G9A U10G U11G C12A, the “aptazyme ON/OFF ratio” value was 1.11.
For the variant U7C U8A G9A U10C U11C C13G, the “aptazyme ON/OFF ratio” value turned out to be 1.05.
In the case of U7C U8A G9A U10C U11C C13U it was 0.994; in that of U7C U8A G9A U10C U11C C13A, 1.03.
On to U7C U8A G9C U10A U11A C12G, for which the “aptazyme ON/OFF ratio” value amounted to 1.18.
U7C U8A G9C U10A U11A C12A: the “aptazyme ON/OFF ratio” value worked out at 1.16.
With U7C U8A G9C U10A U11A C12U the figure was 1.2; with U7C U8A G9A U10C U11C C12G C13A, 1.13; with U7C U8A G9A U10C U11C C12G C13G, 1.17.
With U7C U8A G9A U10C U11C C12G C13U, the “aptazyme ON/OFF ratio” value was found to be 1.07.
Regarding U7C U8A G9A U10C C12U C13G, the “aptazyme ON/OFF ratio” value was found to be 1.11.
As to U7C U8A G9A U10C C12U C13A, the “aptazyme ON/OFF ratio” value worked out at 1.11.
In the case of U7C U8A G9A U10C C12U C13U it was 1.26.
With U7C U8A G9A U11A C12G the figure was 1.2; with U7C U8A G9A U11A C12A, 1.2; with U7C U8A G9A U11A C12U, 1.25.
U7C U8A G9C U10A U11C C12U C13G: the “aptazyme ON/OFF ratio” value is 1.1.
In the case of U7C U8A G9C U10A U11C C12U C13A it was 1.18; in that of U7C U8A G9C U10A U11C C12U C13U, 1.12.
Turning to U7C U8A G9A U10C C12G, the “aptazyme ON/OFF ratio” value is 1.2.
With U7C U8A G9A U10C C12U the figure was 1.58; with U7C U8A G9A U10C C12A, 1.19; with U7C U8A G9A U11G C13G, 1.04.
In the case of U7C U8A G9A U11G C13U, the “aptazyme ON/OFF ratio” value worked out at 1.25.
Take U7C U8A G9A U11G C13A: the “aptazyme ON/OFF ratio” value was determined as 1.18.
In the case of U7C U8A G9A U10G C12A C13U it was 1.25; in that of U7C U8A G9A U10G C12A C13A, 1.14; in that of U7C U8A G9A U10G C12A C13G, 1.15.
With U7C U8A G9A U10C U11A C12A C13U the figure was 1.15; with U7C U8A G9A U10C U11A C12A C13A, 1.13; with U7C U8A G9A U10C U11A C12A C13G, 1.1.
Consider U7C U8A G9C U10A U11A C12A C13G, for which the “aptazyme ON/OFF ratio” value was determined as 1.12.
With U7C U8A G9C U10A U11A C12A C13A, the “aptazyme ON/OFF ratio” value was found to be 1.19.
With U7C U8A G9C U10A U11A C12A C13U the figure was 1.2.
On to U7C U8A G9C U10C U11A C13U, for which the “aptazyme ON/OFF ratio” value amounted to 1.13.
U7C U8A G9C U10C U11A C13G: the “aptazyme ON/OFF ratio” value amounted to 1.2.
Turning to U7C U8A G9C U10C U11A C13A, the “aptazyme ON/OFF ratio” value was found to be 1.09.
For the variant U7C U8A G9A U10C U11A C12G C13A, the “aptazyme ON/OFF ratio” value was found to be 1.12.
As to U7C U8A G9A U10C U11A C12G C13U, the “aptazyme ON/OFF ratio” value amounted to 1.18.
With U7C U8A G9A U10C U11A C12G C13G the figure was 1.17.
Regarding U7C U8A G9A U11A C13U, the “aptazyme ON/OFF ratio” value came to 1.14.
Take U7C U8A G9A U11A C13A: the “aptazyme ON/OFF ratio” value is 1.17.
U7C U8A G9A U11A C13G: the “aptazyme ON/OFF ratio” value is 1.04.
With U7C U8A G9C U10C U11A the figure was 0.786.
In the case of U7C U8A G9C U10C U11C it was 1.01; in that of U7C U8A G9C U10C U11G, 0.891.
With U7C U8A G9C U10A U11C C12A, the “aptazyme ON/OFF ratio” value stood at 1.28.
In the case of U7C U8A G9C U10A U11C C12G it was 1.2; in that of U7C U8A G9C U10A U11C C12U, 1.08; in that of U7C U8A G9A U10G U11A C12A, 1.15.
With U7C U8A G9A U10G U11A C12U the figure was 1.01; with U7C U8A G9A U10G U11A C12G, 1.16.
As to U7C U8A G9C U10A U11G C12U C13A, the “aptazyme ON/OFF ratio” value was determined as 1.1.
In the case of U7C U8A G9C U10A U11G C12U C13G, the “aptazyme ON/OFF ratio” value is 1.08.
With U7C U8A G9C U10A U11G C12U C13U, the “aptazyme ON/OFF ratio” value is 1.13.
For U7C U8A G9A U11G C12A C13U, the “aptazyme ON/OFF ratio” value was 1.09.
In the case of U7C U8A G9A U11G C12A C13A it was 1.19.
With U7C U8A G9A U11G C12A C13G the figure was 1.21.
Take U7C U8A G9A U11A C12A C13A: the “aptazyme ON/OFF ratio” value stood at 1.17.
Consider U7C U8A G9A U11A C12A C13G, for which the “aptazyme ON/OFF ratio” value came out at 1.22.
With U7C U8A G9A U11A C12A C13U the figure was 1.08.
With U7C U8A G9A U10A U11G C12U C13G the figure was 1.17.
With U7C U8A G9A U10A U11G C12U C13U the figure was 1.22; with U7C U8A G9A U10A U11G C12U C13A, 1.21.
For U7C U8A G9C U10C U11C C12A C13G, the “aptazyme ON/OFF ratio” value is 1.
In the case of U7C U8A G9C U10C U11C C12A C13A it was 1.04; in that of U7C U8A G9C U10C U11C C12A C13U, 1.05; in that of U7C U8A G9C U10C, 2.31.
Take U7C U8A G9C U10A: the “aptazyme ON/OFF ratio” value was determined as 1.74.
Take U7C U8A G9A U10A U11G C12G C13U: the “aptazyme ON/OFF ratio” value stood at 1.18.
On to U7C U8A G9A U10A U11G C12G C13A, for which the “aptazyme ON/OFF ratio” value is 1.26.
U7C U8A G9A U10A U11G C12G C13G: the “aptazyme ON/OFF ratio” value was 1.28.
With U7C U8A G9A U10G U11C C12A C13U the figure was 1.18; with U7C U8A G9A U10G U11C C12A C13A, 1.15.
For the variant U7C U8A G9A U10G U11C C12A C13G, the “aptazyme ON/OFF ratio” value came out at 1.1.
In the case of U7C U8A G9A U10C C12A C13A it was 1.14; in that of U7C U8A G9A U10C C12A C13G, 1.16; in that of U7C U8A G9A U10C C12A C13U, 1.24.

Source of the values: the RNAGym collection of RNA variant scans (doi:10.1021/acssynbio.7b00057).
